From article PMC11525196 (Nature, 2024) come the findings set out here.

Where two headings read alike, the source gives them in different places.

Data set [1] deals with the molecule itself. The data set can be described thus: cryo-EM structure.
Data set [2] concerns the molecule itself. The data set can be described thus: cryo-EM structure. The source holds these as a separate data set.
A further data set has as its target T1, LYCHOS(N145A)-Flag-NLuc (human, UniProt Q7Z3F1 1-870, N145A).
T1 sequence: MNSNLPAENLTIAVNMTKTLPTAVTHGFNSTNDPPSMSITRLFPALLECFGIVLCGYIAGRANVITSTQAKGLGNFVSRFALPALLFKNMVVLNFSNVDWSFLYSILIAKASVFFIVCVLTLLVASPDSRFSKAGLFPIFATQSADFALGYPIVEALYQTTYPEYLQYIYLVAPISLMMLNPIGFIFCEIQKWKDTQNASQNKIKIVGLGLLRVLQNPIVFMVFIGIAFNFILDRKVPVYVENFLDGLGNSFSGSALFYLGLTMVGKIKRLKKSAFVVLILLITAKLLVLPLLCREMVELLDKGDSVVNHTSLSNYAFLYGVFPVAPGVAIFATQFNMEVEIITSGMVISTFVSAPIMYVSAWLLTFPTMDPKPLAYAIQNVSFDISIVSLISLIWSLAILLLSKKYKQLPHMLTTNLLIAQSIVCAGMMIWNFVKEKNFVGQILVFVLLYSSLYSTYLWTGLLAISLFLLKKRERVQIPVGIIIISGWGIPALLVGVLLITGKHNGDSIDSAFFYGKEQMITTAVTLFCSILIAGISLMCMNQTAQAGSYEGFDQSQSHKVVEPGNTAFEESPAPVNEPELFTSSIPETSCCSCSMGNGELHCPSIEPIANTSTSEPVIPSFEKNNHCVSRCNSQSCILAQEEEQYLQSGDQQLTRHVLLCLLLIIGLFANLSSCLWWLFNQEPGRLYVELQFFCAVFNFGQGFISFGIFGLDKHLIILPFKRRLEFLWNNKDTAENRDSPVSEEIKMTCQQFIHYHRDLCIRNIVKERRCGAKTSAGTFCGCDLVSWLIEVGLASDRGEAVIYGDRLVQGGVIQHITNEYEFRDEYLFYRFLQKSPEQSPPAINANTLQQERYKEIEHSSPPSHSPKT
Nature of the data set: FRET or BRET.

The target in data set [3] is T2, LYCHOS(F352A/W678R/N145A)-Flag-NLuc (human, UniProt Q7Z3F1 1-870, F352A | W678R | N145A).
T2 sequence: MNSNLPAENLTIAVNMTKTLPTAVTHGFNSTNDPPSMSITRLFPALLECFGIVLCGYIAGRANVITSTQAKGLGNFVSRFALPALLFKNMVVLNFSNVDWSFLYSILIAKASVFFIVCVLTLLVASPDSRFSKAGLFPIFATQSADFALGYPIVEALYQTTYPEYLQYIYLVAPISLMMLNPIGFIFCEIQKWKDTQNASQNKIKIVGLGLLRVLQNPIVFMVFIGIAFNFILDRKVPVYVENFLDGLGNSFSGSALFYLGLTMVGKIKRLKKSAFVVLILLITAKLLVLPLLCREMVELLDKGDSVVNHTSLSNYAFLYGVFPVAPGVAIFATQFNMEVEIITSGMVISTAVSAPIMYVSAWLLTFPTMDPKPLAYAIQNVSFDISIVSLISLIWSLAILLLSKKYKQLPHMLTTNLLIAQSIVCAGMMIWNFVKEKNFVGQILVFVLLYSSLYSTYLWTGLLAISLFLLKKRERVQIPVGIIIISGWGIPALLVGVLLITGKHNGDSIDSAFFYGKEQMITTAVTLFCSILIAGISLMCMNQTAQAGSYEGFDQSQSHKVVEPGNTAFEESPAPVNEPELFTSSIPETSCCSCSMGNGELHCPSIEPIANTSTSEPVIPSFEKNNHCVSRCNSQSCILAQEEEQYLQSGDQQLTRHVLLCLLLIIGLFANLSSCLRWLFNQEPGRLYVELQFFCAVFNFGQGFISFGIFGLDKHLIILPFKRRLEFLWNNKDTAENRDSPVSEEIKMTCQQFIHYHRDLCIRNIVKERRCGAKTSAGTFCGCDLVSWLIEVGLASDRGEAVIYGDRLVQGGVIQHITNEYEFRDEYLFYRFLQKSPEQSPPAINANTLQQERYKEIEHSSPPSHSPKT
Nature of the data set: FRET or BRET.

B1: LYCHOS (GPR155), wild type, C-terminal Flag tag, expressed in Sf9 cells (natural protein, human)
chain: MNSNLPAENLTIAVNMTKTLPTAVTHGFNSTNDPPSMSITRLFPALLECFGIVLCGYIAGRANVITSTQAKGLGNFVSRFALPALLFKNMVVLNFSNVDWSFLYSILIAKASVFFIVCVLTLLVASPDSRFSKAGLFPIFATQSNDFALGYPIVEALYQTTYPEYLQYIYLVAPISLMMLNPIGFIFCEIQKWKDTQNASQNKIKIVGLGLLRVLQNPIVFMVFIGIAFNFILDRKVPVYVENFLDGLGNSFSGSALFYLGLTMVGKIKRLKKSAFVVLILLITAKLLVLPLLCREMVELLDKGDSVVNHTSLSNYAFLYGVFPVAPGVAIFATQFNMEVEIITSGMVISTFVSAPIMYVSAWLLTFPTMDPKPLAYAIQNVSFDISIVSLISLIWSLAILLLSKKYKQLPHMLTTNLLIAQSIVCAGMMIWNFVKEKNFVGQILVFVLLYSSLYSTYLWTGLLAISLFLLKKRERVQIPVGIIIISGWGIPALLVGVLLITGKHNGDSIDSAFFYGKEQMITTAVTLFCSILIAGISLMCMNQTAQAGSYEGFDQSQSHKVVEPGNTAFEESPAPVNEPELFTSSIPETSCCSCSMGNGELHCPSIEPIANTSTSEPVIPSFEKNNHCVSRCNSQSCILAQEEEQYLQSGDQQLTRHVLLCLLLIIGLFANLSSCLWWLFNQEPGRLYVELQFFCAVFNFGQGFISFGIFGLDKHLIILPFKRRLEFLWNNKDTAENRDSPVSEEIKMTCQQFIHYHRDLCIRNIVKERRCGAKTSAGTFCGCDLVSWLIEVGLASDRGEAVIYGDRLVQGGVIQHITNEYEFRDEYLFYRFLQKSPEQSPPAINANTLQQERYKEIEHSSPPSHSPKT
Regarding B1, in “cryo-EM structure [1]”, the “stoichiometry N” value was found to be 2.

B2: LYCHOS (GPR155), wild type, C-terminal Flag tag, expressed in Expi293F cells (natural protein, human)
chain: MNSNLPAENLTIAVNMTKTLPTAVTHGFNSTNDPPSMSITRLFPALLECFGIVLCGYIAGRANVITSTQAKGLGNFVSRFALPALLFKNMVVLNFSNVDWSFLYSILIAKASVFFIVCVLTLLVASPDSRFSKAGLFPIFATQSNDFALGYPIVEALYQTTYPEYLQYIYLVAPISLMMLNPIGFIFCEIQKWKDTQNASQNKIKIVGLGLLRVLQNPIVFMVFIGIAFNFILDRKVPVYVENFLDGLGNSFSGSALFYLGLTMVGKIKRLKKSAFVVLILLITAKLLVLPLLCREMVELLDKGDSVVNHTSLSNYAFLYGVFPVAPGVAIFATQFNMEVEIITSGMVISTFVSAPIMYVSAWLLTFPTMDPKPLAYAIQNVSFDISIVSLISLIWSLAILLLSKKYKQLPHMLTTNLLIAQSIVCAGMMIWNFVKEKNFVGQILVFVLLYSSLYSTYLWTGLLAISLFLLKKRERVQIPVGIIIISGWGIPALLVGVLLITGKHNGDSIDSAFFYGKEQMITTAVTLFCSILIAGISLMCMNQTAQAGSYEGFDQSQSHKVVEPGNTAFEESPAPVNEPELFTSSIPETSCCSCSMGNGELHCPSIEPIANTSTSEPVIPSFEKNNHCVSRCNSQSCILAQEEEQYLQSGDQQLTRHVLLCLLLIIGLFANLSSCLWWLFNQEPGRLYVELQFFCAVFNFGQGFISFGIFGLDKHLIILPFKRRLEFLWNNKDTAENRDSPVSEEIKMTCQQFIHYHRDLCIRNIVKERRCGAKTSAGTFCGCDLVSWLIEVGLASDRGEAVIYGDRLVQGGVIQHITNEYEFRDEYLFYRFLQKSPEQSPPAINANTLQQERYKEIEHSSPPSHSPKT
Regarding B2, in the data set “cryo-EM structure [2]”, the “stoichiometry N” value was found to be 2.

B3: HA-cpmCitrine-NPRL2 (natural protein, UniProt Q8WTW4 1-380, looked up)
chain: MGSGCRIECIFFSEFHPTLGPKITYQVPEDFISRELFDTVQVYIITKPELQNKLITVTAMEKKLIGCPVCIEHKKYSRNALLFNLGFVCDAQAKTCALEPIVKKLAGYLTTLELESSFVSMEESKQKLVPIMTILLEELNASGRCTLPIDESNTIHLKVIEQRPDPPVAQEYDVPVFTKDKEDFFNSQWDLTTQQILPYIDGFRHIQKISAEADVELNLVRIAIQNLLYYGVVTLVSILQYSNVYCPTPKVQDLVDDKSLQEACLSYVTKQGHKRASLRDVFQLYCSLSPGTTVRDLIGRHPQQLQHVDERKLIQFGLMKNLIRRLQKYPVRVTREEQSHPARLYTGCHSYDEICCKTGMSYHELDERLENDPNIIICWK
Regarding B3, the values for the BRET50 (with LYCHOS(N145A)-Flag-NLuc; in data set [3]) were 0.23 ± 0.06 and 0.03 ± 0.01, respectively.
